For the test, the target named is Rpn11 (deubiquitinase of the lid, 3XFLAG-tagged, in the 26S holoenzyme) (S. cerevisiae, UniProt P43588 1-306). Kind of test: cryo-EM structure.

B1: ubiquitin (S. cerevisiae), the proximal, substrate-attached moiety of the polyubiquitin chain (natural protein)
chain: not shown
modifications: C terminus joined to the substrate lysine by an isopeptide bond; part of a K63-linked chain
In the case of B1, the binding result is recorded as “binds”.
